Test [1] has as its target T1, human Fcγ RIIIa/CD16a (human, UniProt P08637 17-208).
T1 construct: Captured through anti-His antibody, so a His tag is implied but not described; also called hFcγRIIIa
Put plainly: SPR, single-cycle titration, FcγR captured on anti-His; 3C23K from YB2/0, low fucose (33.0% fucosylated); lower end of the range 1-12 nM. Here is the method: (§1) SPR analyses were performed on a Bia3000 or T200 apparatus at 25° C. in HBS-EP (GE Healthcare). For affinity measurements, MISRII was covalently immobilized (1000 RU) on CM5 sensor chip using EDC/NHS activation according to the manufacturer's instructions (GE Healthcare). Different concentrations (0.5-128 nM) of 12G4 or 3C23K were injected on immobilized receptor during 180 seconds. After 400 seconds of dissociation in running buffer, the sensor chip was regenerated using Gly-HCl pH 1.7. The KD values, taking into account affinity and avidity, were calculated using a Langmuir 1:1 fitting model (BiaEvaluation3.2, GE Healthcare). Antibody-FcγR measurements were performed by single-cycle titration at 100 μl/min on FcγR (Sigma) captured on anti-His (R&D Systems) covalently immobilized at 4000-5000 RU level. The gamma receptor was injected at 20 nM during 60 seconds and five increasing antibody concentrations were injected (injection time=60 seconds). […] Kinetic parameters were evaluated from the sensorgrams using a heterogeneous Ligand or steady-state fitting models on the T200 evaluation software 3.0 (GE healthcare). […]
(§2) The percentages of fucosylated, galactosylated and bisecting GlcNAc isoforms were 33.0%, 57.2% and 1.8% for 3C23K and 94.6%, 54.4% and 2.0%, for 3C23K-CHO, respectively. The effect of these glycosylation differences on the binding to FcγRs was analyzed by SPR.

The target in test [2] is T1, human Fcγ RIIIa/CD16a. Put plainly: SPR, single-cycle titration, FcγR captured on anti-His; 3C23K from YB2/0, low fucose (33.0% fucosylated); upper end of the range 1-12 nM. How it is done: as §1, §2
For orientation: SPR reads the build-up and loss of mass on a sensor chip optically.

The target of the next test is T2, human Fcγ RII/CD32a (human, UniProt P12318 36-218).
T2 construct: Captured through anti-His antibody, so a His tag is implied but not described; also called hFcγRIIa
T2 sequence (looked up): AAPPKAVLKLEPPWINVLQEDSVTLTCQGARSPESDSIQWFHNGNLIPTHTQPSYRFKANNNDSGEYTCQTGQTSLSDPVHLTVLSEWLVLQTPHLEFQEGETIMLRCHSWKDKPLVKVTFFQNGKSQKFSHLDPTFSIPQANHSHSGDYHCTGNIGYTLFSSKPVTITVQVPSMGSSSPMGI
Put plainly: SPR T200, single-cycle titration, receptor captured on anti-His; heterogeneous ligand model (footnote *). Here is the method:
(§3) Anti-histidine antibodies (R&D Systems) were immobilized on a T200 apparatus at 25° C. in HBS-EP at 10 μl/min flow rate on a CM5 sensor chip using EDC/NHS activation, according to the manufacturer's instructions (GE Healthcare). They were covalently immobilized at the 6900RU level on the flowcell Fc2 and a control reference surface (flowcell Fc1) was prepared using the same chemical treatment but without anti-His antibodies.
(§4) All kinetic measurements in Fc1 and Fc2 were performed by single-cycle titration on a T200 apparatus at 25° C. in HBS-EP at 100 μl/min. Each human gamma receptor (R&D Systems) was captured on immobilized anti-His antibodies at 20 nM during 60 s. Five increasing concentrations of antibody were injected (injection time=120 s). After a dissociation step of 600 s in running buffer, sensor surfaces were regenerated using 5 μl of glycine-HCl pH1.7. All the sensorgrams were corrected by subtracting the low signal from the control reference surface and buffer blank injections. Kinetic parameters were evaluated from the sensorgrams using a heterogeneous ligand or two states models from the T200 evaluation software.
(§5) The results of the measure of the affinity constants (Kd) of the hypo-fucosylated anti-AMHRII 3C23K antibody for the human Fc receptors are depicted in Table 4 below.

Test [3] concerns the target T3, human Fcγ RIIIb/hCD16b (human, UniProt O75015 17-200).
T3 construct: Captured through anti-His antibody, so a His tag is implied but not described; also called hFcγRIIIb
The description is as above. Here is the method: as §3, §4, §5

Test [4] concerns the target T4, MISRII (AMHRII), immobilised on CM5 sensor chip (UniProt Q16671 18-144, limits assumed).
T4 construct: also called MSRII; immobilized receptor
T4 sequence (looked up): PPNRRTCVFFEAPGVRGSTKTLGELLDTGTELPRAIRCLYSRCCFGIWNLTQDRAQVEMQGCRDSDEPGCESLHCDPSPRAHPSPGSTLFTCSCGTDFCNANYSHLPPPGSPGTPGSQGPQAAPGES
As to the kind of experiment: SPR, MISRII immobilised on CM5 chip, IgG injected, Langmuir 1:1 fit (affinity and avidity). How it is done: as §1
To better define the binding characteristics, clone 3C23K was reformatted as an IgG1 antibody, produced in YB2/0 cells and analyzed by surface plasmon resonance (SPR). […]

Test [5] concerns the target T5, human Fcγ RI/CD64 (human, UniProt P12314 16-288).
T5 construct: Captured through anti-His antibody, so a His tag is implied but not described; also called hFcγRI
Put plainly: SPR T200, single-cycle titration, receptor captured on anti-His; two state reaction model. How it is done:
as §3, §4, §5

For test [6], the target named is T3, human Fcγ RIIIb/hCD16b. Put plainly: SPR, single-cycle titration, FcγR captured on anti-His; 3C23K from YB2/0, low fucose (33.0% fucosylated). Here is the method:
as §1, §2

Test [7] concerns the target T1, human Fcγ RIIIa/CD16a. As to the kind of experiment: SPR (Biacore); description's upper bound for hypofucosylated 3C23K (YB2/0).
Test [8] deals with T1, human Fcγ RIIIa/CD16a. As to the kind of experiment: SPR, single-cycle titration, FcγR captured on anti-His; 3C23K-HEK293, expressed in HEK293 (comparator, not fucose-reduced); upper end of the range 31-164 nM. How it is done:
as §1, §2

Test [9] addresses T3, human Fcγ RIIIb/hCD16b. Put plainly: SPR, single-cycle titration, FcγR captured on anti-His; 3C23K-HEK293, expressed in HEK293 (comparator, not fucose-reduced). Here is the method: as §1, §2
The target of test [10] is T5, human Fcγ RI/CD64. Put plainly: SPR, FcγR captured on anti-His. How it is done:
as §1, §2

The target of another test is T6, human Fcγ RIIbc/CD32bc (human, UniProt P31994 46-217).
T6 construct: treated here as one molecule; also called hFcγRIIb
T6 sequence (looked up): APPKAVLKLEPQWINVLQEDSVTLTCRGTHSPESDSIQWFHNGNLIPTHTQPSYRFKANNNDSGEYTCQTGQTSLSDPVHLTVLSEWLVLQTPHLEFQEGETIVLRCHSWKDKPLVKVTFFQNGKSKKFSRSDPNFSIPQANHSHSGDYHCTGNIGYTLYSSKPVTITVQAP
As to the kind of experiment: SPR, FcγR captured on anti-His. How it is done: as §1, §2

Test [11] deals with T1, human Fcγ RIIIa/CD16a. As to the kind of experiment: SPR, single-cycle titration, FcγR captured on anti-His; 3C23K-HEK293, expressed in HEK293 (comparator, not fucose-reduced); lower end of the range 31-164 nM. Here is the method:
as §1, §2

These results are taken from US20200148777A1 (GAMAMABS PHARMA, published 2020).

Where only a bound is given, the exact number is not on record here.

T1 sequence (P08637 17-208 limits assumed): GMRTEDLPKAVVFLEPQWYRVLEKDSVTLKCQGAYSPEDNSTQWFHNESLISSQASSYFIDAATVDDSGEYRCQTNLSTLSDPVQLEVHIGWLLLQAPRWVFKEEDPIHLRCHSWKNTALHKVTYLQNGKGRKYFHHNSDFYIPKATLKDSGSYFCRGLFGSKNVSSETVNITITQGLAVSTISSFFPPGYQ
T3 sequence (O75015 17-200 limits assumed): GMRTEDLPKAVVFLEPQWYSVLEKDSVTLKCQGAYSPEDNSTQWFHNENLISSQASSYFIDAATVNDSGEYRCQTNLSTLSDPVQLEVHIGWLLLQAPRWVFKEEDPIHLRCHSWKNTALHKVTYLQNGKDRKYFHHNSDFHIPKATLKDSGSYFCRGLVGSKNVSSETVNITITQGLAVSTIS
T5 sequence (P12314 16-288 limits assumed): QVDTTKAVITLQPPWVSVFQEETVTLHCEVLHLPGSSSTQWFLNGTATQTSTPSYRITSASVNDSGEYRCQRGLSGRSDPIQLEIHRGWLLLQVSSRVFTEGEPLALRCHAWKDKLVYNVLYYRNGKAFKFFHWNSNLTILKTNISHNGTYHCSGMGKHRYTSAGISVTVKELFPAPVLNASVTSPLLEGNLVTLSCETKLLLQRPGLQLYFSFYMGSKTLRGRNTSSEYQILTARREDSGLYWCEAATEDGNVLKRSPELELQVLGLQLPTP

B1: 3C23K humanised anti-AMHRII monoclonal antibody produced in YB2/0 cells (hypofucosylated, EMABling version) (antibody, human IgG1, kappa)
heavy: not shown
light: DIQMTQSPSTLSASVGDRVTITCRASSSVRYIAWYQQKPGKAPKLLTYPTSSLKSGVPSRFSGSGSGTEFTLTISSLQPDDFATYYCLQWSSYPWTFGGGTKVEIKRTVAAPSVFIFPPSDEQLKSGTASVVCLLNNFYPREAKVQWKVDNALQSGNSQESVTEQDSKDSTYSLSSTLTLSKADYEKHKVYACEVTHQGLSSPVTKSFNRGEC
modifications: N-glycan at ASN295 of the heavy chain, hypofucosylated (33.0% fucosylated isoforms for 3C23K from YB2/0)
notes: also called GM102; R18H2
For the molecule B1, the Kd was at least 1 nM with human Fcγ RIIIa/CD16a [1]; at most 12 nM in the test with human Fcγ RIIIa/CD16a [2]; 120 nM with human Fcγ RII/CD32a; 49 nM in the test with human Fcγ RIIIb/hCD16b [3]; 0.055 nM in test [4]; 0.2 to 3.3 nM in the test with human Fcγ RI/CD64 [5]. Besides, the Kd is 86 nM with human Fcγ RIIIb/hCD16b [6] and below 50 nM with human Fcγ RIIIa/CD16a [7].

B2: 3C23K antibody expressed in HEK293 cells (antibody, human IgG1, kappa)
heavy: not shown
light: DIQMTQSPSTLSASVGDRVTITCRASSSVRYIAWYQQKPGKAPKLLTYPTSSLKSGVPSRFSGSGSGTEFTLTISSLQPDDFATYYCLQWSSYPWTFGGGTKVEIKRTVAAPSVFIFPPSDEQLKSGTASVVCLLNNFYPREAKVQWKVDNALQSGNSQESVTEQDSKDSTYSLSSTLTLSKADYEKHKVYACEVTHQGLSSPVTKSFNRGEC
notes: It differs from m1 only in glycosylation; also called 3C23K-HEK293
In the case of B2, the figures for the Kd with human Fcγ RIIIa/CD16a [8], in the test with human Fcγ RIIIb/hCD16b [9] and in the test with human Fcγ RIIIa/CD16a [11] were at most 164 nM, 378 nM and at least 31 nM, respectively. Also, the binding result in the test with human Fcγ RI/CD64 [10] and in the test with human Fcγ RIIbc/CD32bc was “binds” in each case.

B3: murine anti-MISRII monoclonal antibody 12G4 (antibody, V domains shown)
VH: QVQLQQSGPELVKPGASVRMSCKASGYTFTSYHIHWVKQRPGQGLEWIGWIYPGDDSTKYNEKFKGKTTLTADKSSSTAYMLLSSLTSEDSAIYFCTRGDRFAYWGQGTLVTVSA
VL: QIVLTQSPAIMSASLGEGITLTCSASSSVRYIHWYQQKSGTSPKLLIYSTSNLASGVPSRFSGSGSGTFHSLTISSVEAEDAADYYCLQWSSYPWTFGGGTKLEIK
For B3, the Kd in test [4] amounted to 0.79 nM.
